Test results taken from the supplement of paper PMC10126150.
± gives the standard deviation of the averaged measurements.

system: ATP; experiment: switch fluorescence ratio, 500 uM ATP over buffer (Cy3 cluster intensity, sum of 5 cycles each) (fold (ratio)); higher = stronger signal-on switching upon ATP binding; sequences stand for … in TCGTCGGCAGCGTCAGATGTGTATAAGAGACAGTTTTTTTTTTTTTTTTTTTTTTTTT…TC; settings: aptamer strand: ATP DNA aptamer (quencher-CACCTGGGGGAGTATTGCGGAGGAAGG + anchor), 100 nM annealed; ATP concentration: 500 uM
Outline: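 Per cluster, summed Cy3 intensity from the target cycles was divided by that from the buffer cycles to give the fluorescence ratio, then averaged per switch-domain sequence. Clusters outside 100-1000 RFU were excluded. The Cy3-labelled switching-strand clusters, on a modified Illumina MiSeq flow-cell, were annealed to 100 nM quencher-labelled ATP aptamer and imaged in selection buffer, then after 15 min with 500 uM ATP at 22 °C, for five cycles with NaOH stripping and re-annealing between them.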
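Note: ATP exposure 15 min at 22 °C before imaging.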

| Sequence | switch fluorescence ratio |
| --- | --- |
| ATGATTTTTT | 0.985 ± 0.012 |
| ATGCAAATGC | 1.41 ± 0.017 |
| ATGCAAGGTC | 1.12 ± 0.049 |
| ATGCACCTCG | 1.025 ± 0.006 |
| ATGCAGATCC | 1.04 ± 0.042 |
| ATGCATATGG | 1.03 ± 0.013 |
| ATGCATTTTA | 0.999 ± 0.045 |
| ATGCATTTTT | 1.02 ± 0.043 |
| ATGCCAAAGG | 1.01 ± 0.055 |
| ATGCCATTAG | 0.967 ± 0.02 |
| ATGCCTGATA | 0.963 ± 0.029 |
| ATGCGAGCAA | 1.11 ± 0.019 |
| ATGCGATCAA | 1.02 ± 0.014 |
| ATGCGGACAG | 1.011 ± 0.0083 |
| ATGCGGGTTC | 1.01 ± 0.012 |
| ATGCGGTCTG | 1.04 ± 0.028 |
| ATGCTATACT | 1.6 ± 0.022 |
| ATGCTCTTAT | 1 ± 0.012 |
| ATGCTGGTGG | 0.978 ± 0.046 |
| ATGCTGTCTG | 1 ± 0.043 |
| ATGCTTAGGG | 0.944 ± 0.02 |
| ATGGAAGAGG | 0.982 ± 0.018 |
| ATGGAATTGT | 0.986 ± 0.022 |
| ATGGACAGGT | 1.04 ± 0.031 |
| ATGGAGAGAG | 0.9929 ± 0.004 |

| Sequence | switch fluorescence ratio |
| --- | --- |
| ATGGAGTAAA | 1.005 ± 0.0084 |
| ATGGAGTCGG | 0.986 ± 0.021 |
| ATGGATAGTC | 0.986 ± 0.044 |
| ATGGATATAT | 0.995 ± 0.016 |
| ATGGATTGCA | 0.994 ± 0.023 |
| ATGGATTGTG | 0.983 ± 0.011 |
| ATGGATTTAA | 1.012 ± 0.0041 |
| ATGGATTTAC | 1.06 ± 0.028 |
| ATGGCAAAGA | 0.9828 ± 0.0096 |
| ATGGCAGGAT | 1 ± 0.063 |
| ATGGCAGGTA | 0.992 ± 0.033 |
| ATGGCATAAG | 1.003 ± 0.0044 |
| ATGGCGGACG | 0.981 ± 0.05 |
| ATGGCGGGTT | 1 ± 0.016 |
| ATGGCTGGCG | 1.07 ± 0.094 |
| ATGGCTGGGT | 0.971 ± 0.029 |
| ATGGCTTCGT | 1.03 ± 0.021 |
| ATGGGACGGT | 1.03 ± 0.036 |
| ATGGGAGAAA | 1.01 ± 0.0045 |
| ATGGGAGGGG | 1.01 ± 0.035 |
| ATGGGAGTTT | 1.01 ± 0.01 |
| ATGGGATACT | 1.03 ± 0.033 |
| ATGGGCATC | 0.9882 ± 0.0058 |
| ATGGGCGAGC | 0.981 ± 0.046 |
| ATGGGCGGCC | 1.0476 ± 0.00053 |

| Sequence | switch fluorescence ratio |
| --- | --- |
| ATGGGGACTA | 1.0122 ± 0.00084 |
| ATGGGGAGTC | 0.985 ± 0.035 |
| ATGGGGATGA | 0.9776 ± 0.004 |
| ATGGGGCAGC | 1 ± 0.025 |
| ATGGGGCATC | 0.9907 ± 0.0082 |
| ATGGGGCTCT | 0.9967 ± 0.0067 |
| ATGGGGCTGT | 0.979 ± 0.034 |
| ATGGGGGAGG | 1.009 ± 0.0031 |
| ATGGGGGATC | 1.008 ± 0.0082 |
| ATGGGGGCTG | 1.02 ± 0.047 |
| ATGGGGGGAA | 0.996 ± 0.037 |
| ATGGGGGTAC | 0.998 ± 0.014 |
| ATGGGGGTCG | 0.98 ± 0.05 |
| ATGGGGTACG | 0.972 ± 0.06 |
| ATGGGGTCGA | 1 ± 0.051 |
| ATGGGGTTAA | 1.03 ± 0.022 |
| ATGGGTAAGG | 0.983 ± 0.019 |
| ATGGGTATCT | 0.994 ± 0.033 |
| ATGGGTGAAA | 0.9867 ± 0.0084 |
| ATGGGTGGCT | 1.011 ± 0.007 |
| ATGGGTTAGA | 1.05 ± 0.037 |
| ATGGGTTTAA | 0.961 ± 0.063 |
| ATGGGTTTTT | 0.979 ± 0.029 |
| ATGGTAAGAC | 1.14 ± 0.062 |
| ATGGTAAGGG | 0.991 ± 0.026 |

| Sequence | switch fluorescence ratio |
| --- | --- |
| ATGGTAGAAA | 1.02 ± 0.012 |
| ATGGTATAAC | 1.01 ± 0.015 |
| ATGGTATCGG | 1.026 ± 0.0074 |
| ATGGTATTTT | 1.01 ± 0.013 |
| ATGGTCATAA | 0.993 ± 0.022 |
| ATGGTCCCTG | 0.997 ± 0.035 |
| ATGGTCCGAG | 0.998 ± 0.018 |
| ATGGTCGGCC | 0.9831 ± 0.0052 |
| ATGGTGAGGG | 0.962 ± 0.011 |
| ATGGTGCGGC | 1.008 ± 0.0018 |
| ATGGTGCTGG | 0.983 ± 0.035 |
| ATGGTGGGT | 0.978 ± 0.033 |
| ATGGTGTCTA | 0.981 ± 0.038 |
| ATGGTTAGTG | 0.975 ± 0.011 |
| ATGGTTGGTA | 0.995 ± 0.038 |
| ATGGTTGGTC | 0.97 ± 0.023 |
| ATGGTTGTGC | 0.991 ± 0.026 |
| ATGGTTGTTC | 1.07 ± 0.16 |
| ATGTAAATGT | 1.041 ± 0.0077 |
| ATGTAACGAG | 1.01 ± 0.022 |
| ATGTAACTCG | 1.03 ± 0.044 |
| ATGTAACTGT | 0.976 ± 0.033 |
| ATGTAACTTA | 1.03 ± 0.027 |
| ATGTAAGGCG | 1.014 ± 0.0076 |
| ATGTACGAAT | 1.004 ± 0.0025 |

| Sequence | switch fluorescence ratio |
| --- | --- |
| ATGTAGGCGT | 0.967 ± 0.021 |
| ATGTAGGGGG | 0.988 ± 0.013 |
| ATGTAGGGGT | 1.04 ± 0.093 |
| ATGTAGGGTT | 1.036 ± 0.0048 |
| ATGTAGTAGT | 1 ± 0.034 |
| ATGTAGTCTT | 1 ± 0.0038 |
| ATGTAGTGCA | 0.995 ± 0.034 |
| ATGTATAGGC | 0.962 ± 0.06 |
| ATGTATATAG | 0.978 ± 0.012 |
| ATGTATTAGG | 0.997 ± 0.025 |
| ATGTATTTGG | 1.01 ± 0.014 |
| ATGTCAAAGC | 0.984 ± 0.063 |
| ATGTCAGAGA | 1.02 ± 0.037 |
| ATGTCATGCG | 1.02 ± 0.045 |
| ATGTCCCAAG | 0.99 ± 0.042 |
| ATGTCCGAGG | 1.028 ± 0.0019 |
| ATGTCGACAG | 1 ± 0.043 |
| ATGTCGTCTC | 1.003 ± 0.0091 |
| ATGTCGTGGG | 1.01 ± 0.037 |
| ATGTCTGGGC | 0.977 ± 0.014 |
| ATGTGAAAGG | 1.02 ± 0.018 |
| ATGTGACGCA | 1.13 ± 0.012 |
| ATGTGACTCT | 1.01 ± 0.043 |
| ATGTGAGAAT | 0.998 ± 0.037 |
| ATGTGATCGC | 0.986 ± 0.042 |

| Sequence | switch fluorescence ratio |
| --- | --- |
| ATGTGCATGT | 0.986 ± 0.024 |
| ATGTGGACAA | 1.02 ± 0.021 |
| ATGTGGAGAT | 0.977 ± 0.059 |
| ATGTGGCCAC | 1.06 ± 0.053 |
| ATGTGGGGGA | 1.02 ± 0.015 |
| ATGTGGGGTA | 0.985 ± 0.026 |
| ATGTGGTGCA | 1.02 ± 0.0034 |
| ATGTGGTTAG | 0.994 ± 0.03 |
| ATGTGTAAAA | 0.99 ± 0.013 |
| ATGTGTCAAG | 0.9675 ± 0.0065 |
| ATGTGTCTGT | 1.01 ± 0.017 |
| ATGTGTGAAA | 1 ± 0.073 |
| ATGTGTGGGA | 1.029 ± 0.0019 |
| ATGTGTGGGC | 1.01 ± 0.021 |
| ATGTGTGTA | 1 ± 0.021 |
| ATGTGTTGCG | 1 ± 0.045 |
| ATGTGTTTTT | 0.98 ± 0.036 |
| ATGTTAGTTG | 0.965 ± 0.041 |
| ATGTTATCGA | 1.008 ± 0.0074 |
| ATGTTCGGGC | 1.04 ± 0.035 |
| ATGTTCTATA | 0.97751 ± 0.00084 |
| ATGTTCTGGG | 1.04 ± 0.029 |
| ATGTTGACCG | 1.03 ± 0.044 |
| ATGTTGATAC | 1.07 ± 0.0013 |
| ATGTTGATCC | 1.03 ± 0.03 |

| Sequence | switch fluorescence ratio |
| --- | --- |
| ATGTTGGAAT | 1.04 ± 0.028 |
| ATGTTGGCGT | 1 ± 0.011 |
| ATGTTGGTAG | 0.985 ± 0.026 |
| ATGTTGTCAG | 0.987 ± 0.027 |
| ATGTTGTCTC | 1.001 ± 0.0079 |
| ATGTTTAAG | 1.012 ± 0.0094 |
| ATGTTTCAGG | 0.997 ± 0.018 |
| ATGTTTCTGG | 0.965 ± 0.011 |
| ATGTTTGAGT | 1.01 ± 0.026 |
| ATGTTTGGAC | 1.01 ± 0.02 |
| ATGTTTGGTA | 1.003 ± 0.0015 |
| ATGTTTTAAC | 1.02 ± 0.039 |
| ATGTTTTATG | 0.992 ± 0.042 |
| ATGTTTTTCT | 0.963 ± 0.0029 |
| ATTAAAAAAG | 0.985 ± 0.028 |
| ATTAAAAAAT | 0.98 ± 0.089 |
| ATTAAAACGG | 1.07 ± 0.098 |
| ATTAAAAGTT | 0.984 ± 0.038 |
| ATTAAAGGGG | 1 ± 0.023 |
| ATTAAAGGTC | 1 ± 0.02 |
| ATTAAAGTTT | 1.04 ± 0.034 |
| ATTAACTGAA | 1.04 ± 0.012 |
| ATTAACTGGG | 1.01 ± 0.023 |
| ATTAAGAGGC | 1.02 ± 0.06 |
| ATTAAGCAAG | 1.04 ± 0.015 |

| Sequence | switch fluorescence ratio |
| --- | --- |
| ATTAAGCAT | 1.04 ± 0.053 |
| ATTAAGGGGT | 1.07 ± 0.12 |
| ATTAAGTCGT | 0.982 ± 0.033 |
| ATTAATATCA | 0.9629 ± 0.0017 |
| ATTAATATGG | 1.02 ± 0.015 |
| ATTAATGTGT | 0.9987 ± 0.0011 |
| ATTACGACTG | 1.06 ± 0.031 |
| ATTACGGGGT | 1.01 ± 0.044 |
| ATTACGTATT | 1.103 ± 0.0095 |
| ATTACGTGTA | 1.012 ± 0.0039 |
| ATTACGTTGG | 0.998 ± 0.024 |
| ATTACGTTTT | 0.989 ± 0.039 |
| ATTACTAGTG | 1.03 ± 0.014 |
| ATTACTTACA | 1.308 ± 0.0037 |
| ATTAGAAAAA | 0.904 ± 0.019 |
| ATTAGAACGG | 1.01 ± 0.022 |
| ATTAGACCCT | 1.038 ± 0.005 |
| ATTAGAGATT | 1.01 ± 0.028 |
| ATTAGAGCGT | 1.013 ± 0.0045 |
| ATTAGCGCCC | 1.01 ± 0.032 |
| ATTAGCTGGT | 0.952 ± 0.017 |
| ATTAGCTTAG | 0.987 ± 0.017 |
| ATTAGGGGAT | 1.01 ± 0.018 |
| ATTAGGGGTT | 1 ± 0.037 |
| ATTAGGGTTG | 0.9823 ± 0.0019 |
